Tests used:
[1] = biological target: PDPN ectodomain, monomeric, Avi-tagged, site-specifically biotinylated (Fc tag removed) (human) (UniProt Q86YL7)
[2] = biological target: T1, CLEC-2 recombinant ectodomain, Fc-tagged (human, UniProt Q9P126 55-229); assay: SPR; CLEC-2 or CD177 ectodomains immobilised by amine coupling, 300-400 resonance units; Avi-tagged monomeric PDPN ectodomain as analyte; equilibrium fit for CD177, Langmuir model for CLEC-2; details: both partners purified
T1 construct: C-type lectin receptor CLEC-2 (CLEC1B), human, ectodomain; The methods describe a general pRK5 vector with a C-terminal human Fc tag; CLEC-2 is a type II membrane protein, so the real end of the Fc may differ; also called Clec1b; recombinant human CLEC-2
T1 sequence (Q9P126 55-229): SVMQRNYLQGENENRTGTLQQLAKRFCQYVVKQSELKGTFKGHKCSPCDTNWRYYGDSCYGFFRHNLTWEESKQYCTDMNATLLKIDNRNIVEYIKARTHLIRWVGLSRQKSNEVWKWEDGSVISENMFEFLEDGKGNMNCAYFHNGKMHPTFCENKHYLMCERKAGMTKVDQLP

[3] = biological target: CD177 recombinant ectodomain, Fc-tagged (human) (UniProt Q8N6Q3); assay: as above
CD177 recombinant ectodomain, Fc-tagged (human), sequence (Q8N6Q3 22-408): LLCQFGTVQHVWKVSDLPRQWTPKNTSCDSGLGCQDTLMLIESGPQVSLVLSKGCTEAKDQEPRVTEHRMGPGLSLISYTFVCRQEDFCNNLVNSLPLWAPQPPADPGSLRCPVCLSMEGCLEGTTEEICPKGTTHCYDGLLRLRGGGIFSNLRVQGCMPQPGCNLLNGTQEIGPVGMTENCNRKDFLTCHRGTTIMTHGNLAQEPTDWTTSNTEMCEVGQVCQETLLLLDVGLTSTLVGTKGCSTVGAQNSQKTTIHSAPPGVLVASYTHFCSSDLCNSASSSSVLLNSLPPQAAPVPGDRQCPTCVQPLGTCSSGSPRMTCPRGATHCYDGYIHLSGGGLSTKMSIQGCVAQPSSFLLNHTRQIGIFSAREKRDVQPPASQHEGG

[4] = biological target: T1, CLEC-2 recombinant ectodomain, Fc-tagged; assay: SPR; CLEC-2 or CD177 ectodomains immobilised by amine coupling on GLC (Proteon XPR36) or CM5 (Biacore 3000) chips; Avi-Fc-tagged PDPN as soluble analyte at the indicated concentrations; PBS with 0.01% Tween-20 (Proteon) or HBS-P pH 7.4 (Biacore); details: both partners purified

Molecule: CD177 recombinant ectodomain, Fc-tagged (from UniProt Q8N6Q3 22-408) (Fc fusion)
- inhibition of CAF contractility (gel contraction assay) by recombinant CD177 [1]: 20%

B1: PDPN ectodomain, monomeric, Avi-tagged, site-specifically biotinylated (Fc tag removed) (domain or fragment, human, UniProt Q86YL7 23-131, looked up)
chain: ASTGQPEDDTETTGLEGGVAMPGAEDDVVTPGTSEDRYKSGLTTLVATSVNSVTGIRIEDLPTSESTVHAQEQSPSATASNVATSHSTEKVDGDTQTTVEKDGLSTVTL
modifications: biotin on the Avi tag (site-specific, in vitro, BirA)
notes: podoplanin (PDPN), human, ectodomain; the methods describe biotinylation of the Avi-tagged product after removal of the Fc; Also used here as the PDPN of the functional rows (there PDPN is endogenous on fibroblasts); also called podoplanin; gp38; source: mammalian cells, purified; biotinylated in vitro with BirA; not shown: Fc (human IgG1), C-terminal, cleaved
- Kd [2]: 210 ± 0.3 nM
- Kd [3]: 3300 nM

B2: PDPN ectodomain, Avi-Fc-tagged (Fc fusion, human, UniProt Q86YL7 23-131, looked up)
chain: B1 chain
notes: podoplanin (PDPN), human, ectodomain; pRK5 vector with C-terminal human IgG1 Fc; also called Avi-Fc-tagged PDPN; AviFc-tagged PDPN; source: mammalian cells, purified; not shown: Fc (human IgG1), C-terminal, kept
- binding result [4]: binds
